# According to patent US6150139A, “Bacterocide compositions and their preparation from micrococcus varians” (priority 1995, dated 2000):
# Key:
# [1] = tested on: strain of Lactococcus lactis which produces lacticin 481; experiment: inhibition spectrum test on the lacticin 481 producer; assay type: cell-based
# From the text: When the strain of Lactococcus lactis which produces lacticin 481 is inoculated in the presence of a […] extract, as previously described in the inhibition spectrum test, the growth of the said strain is seen to be inhibited. The strain of Lactococcus lactis which produces lacticin 481 is immune to its own bacteriocin, lacticin 481, but is not immune to the […] produced by either of the two Micrococcus varians strains according to the present invention.
# [2] = tested on: Lactobacillus helveticus (N 2); experiment: resistance to heat and to pH, agar well test; assay type: physicochemical; settings: for Inhibition halo (mm): 115 °C
# [3] = tested on: Lactobacillus helveticus (N 2); experiment: resistance to pH, agar well test; assay type: physicochemical; settings: readjusted to pH 6-7
# [4] = tested on: Lactobacillus bulgaricus (YL 5); experiment: inactivation by enzymes, agar well test; assay type: physicochemical; settings: 60 min, halo after treatment
# [5] = tested on: Gram-negative bacteria; experiment: agar well test, inhibition spectrum, Gram-negative bacteria; assay type: cell-based; settings: results of Table V
# From the text: The inhibition spectrum of the supernatant is thus determined.
# [6] = tested on: Lactobacillus helveticus (N 2); experiment: inactivation by enzymes, agar well test; assay type: physicochemical; settings: for Inhibition halo diameter after enzyme treatment: 60 min
# [7] = tested on: Lactobacillus helveticus (N 2); experiment: resistance to heat, agar well test; assay type: physicochemical; settings: for Inhibition halos (mm): 100 °C, pH 7
# [8] = Catalase (SIGMA C-10) 5 mg/ml, incubation 30 °C
# [9] = Ficin (SIGMA F-3266) 5 mg/ml, incubation 37 °C
# [10] = Pronase E (SIGMA P-8038) 5 mg/ml, incubation 37 °C
# [11] = Proteinase K (MERCK 1000 144) 5 mg/ml, incubation 37 °C
substance,measurement,setting,value
lacticin 481,growth of the lacticin 481-producing strain in presence of bacteriocin,[1],immune
"variacin: bacteriocin from Micrococcus varians strains CNCM I-1586 and CNCM I-1587, amino acid sequence SEQ ID NO:1 (GSGVIPTISHECHMNSFQFVFTCCS)",Inhibition halo (mm),"[2]; pH 4, 20 min",27 mm
same,bactericidal activity after pH combined with heat,"[2]; pH 4 or 7, combined with an elevated temperature",not compromised
same,Inhibition halo (mm),"[2]; pH 7, 20 min",27 mm
same,Inhibition halos,"[3]; pH 2, 37 °C for 60 min",27 mm
same,Inhibition halos,"[3]; pH 4, 37 °C for 60 min",27 mm
same,Inhibition halos,"[3]; pH 6, 37 °C for 60 min",27 mm
same,Inhibition halos,"[3]; pH 8, 37 °C for 60 min",27 mm
same,Inhibition halos,"[3]; pH 10, 37 °C for 60 min",27 mm
same,Inactivation (mm),[4]; [8],27 mm
same,Inactivation (mm),[4]; [9],0 mm
same,Inactivation (mm),[4]; [10],0 mm
same,Inactivation (mm),[4]; [11],0 mm
same,inhibitory effect on the growth of Gram-negative bacteria,[5],does not exert any inhibitory effect
same,Inhibition halo diameter after enzyme treatment,[6]; [8],27 mm
same,Inhibition halo diameter after enzyme treatment,[6]; [9],0 mm
same,Inhibition halo diameter after enzyme treatment,[6]; [10],0 mm
same,Inhibition halo diameter after enzyme treatment,[6]; [11],0 mm
same,effect of proteolytic enzymes on bactericidal activity,"[6]; all proteolytic enzymes of Tables I and II, indicator strains N 2 and YL 5",suppress the bactericidal activity
same,influence of catalase on bactericidal activity,[6]; two indicator strains N 2 and YL 5,not found to exert any influence
same,Inhibition halos (mm),[7]; incubation time 15 min,27 mm
same,Inhibition halos (mm),[7]; incubation time 30 min,27 mm
same,Inhibition halos (mm),[7]; incubation time 60 min,27 mm
same,bactericidal activity after heating,[7]; 60 min incubation at 100 °C,not compromised
